# Test results from publication PMC6127294, “Jungle Express is a versatile repressor system for tight transcriptional control” (Nature Communications, 2018).
# T1: EilR (UniProt A0A346M331 1-192)
# T1 sequence: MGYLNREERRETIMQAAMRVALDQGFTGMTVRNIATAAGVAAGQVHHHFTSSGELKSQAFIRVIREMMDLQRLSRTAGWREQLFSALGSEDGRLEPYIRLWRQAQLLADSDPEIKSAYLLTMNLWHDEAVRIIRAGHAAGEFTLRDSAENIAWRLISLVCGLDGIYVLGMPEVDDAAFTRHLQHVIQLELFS
# T2: EilR-R32A (UniProt A0A346M331 1-192, R32A)
# T2 sequence: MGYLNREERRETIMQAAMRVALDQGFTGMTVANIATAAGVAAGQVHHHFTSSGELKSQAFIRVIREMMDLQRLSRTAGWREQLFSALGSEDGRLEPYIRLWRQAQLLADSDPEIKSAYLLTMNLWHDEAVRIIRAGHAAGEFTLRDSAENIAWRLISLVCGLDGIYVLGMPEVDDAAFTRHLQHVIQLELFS
# T3: EilR-Y03A/R32A (UniProt A0A346M331 1-192, Y3A;R32A)
# T3 sequence: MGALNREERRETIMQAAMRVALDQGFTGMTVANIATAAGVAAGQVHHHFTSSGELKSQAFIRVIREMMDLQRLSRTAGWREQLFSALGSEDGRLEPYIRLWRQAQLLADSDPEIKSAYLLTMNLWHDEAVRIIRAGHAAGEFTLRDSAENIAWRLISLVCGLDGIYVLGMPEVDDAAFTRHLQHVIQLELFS
# T4: EilR-H47A (UniProt A0A346M331 1-192, H47A)
# T4 sequence: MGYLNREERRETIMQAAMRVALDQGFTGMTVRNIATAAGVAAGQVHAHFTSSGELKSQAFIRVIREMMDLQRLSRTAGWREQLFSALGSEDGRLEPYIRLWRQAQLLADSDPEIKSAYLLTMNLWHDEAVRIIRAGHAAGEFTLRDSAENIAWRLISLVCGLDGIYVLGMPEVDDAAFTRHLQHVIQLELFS
# Assays:
# EilR [1] = biological target: T1, EilR; assay: EMSA; lower affinity than eilOc; 5 mM MgCl2; Operator EMSA: 30 mM Tris pH 7.7, 100 mM NaCl, 25 mM arginine, 25 mM glutamine, 5 mM MgCl2, RT 1.5 h; mutant EMSA: 50 mM Tris pH 8.0, 150 mM NaCl, 50 mM arginine, 50 mM glutamine, 10 mM MgCl2, 0.5 mM DTT, RT 30 min; 2% agarose TBE gels; conditions: protein: recombinant; tags: His8 removed with TEV protease; chain copies: 2
# EilR [2] = biological target: T1, EilR; assay: EMSA; complex appears from 0.125:1 EilR:DNA; 10 mM MgCl2; Operator EMSA: 30 mM Tris pH 7.7, 100 mM NaCl, 25 mM arginine, 25 mM glutamine, 5 mM MgCl2, RT 1.5 h; mutant EMSA: 50 mM Tris pH 8.0, 150 mM NaCl, 50 mM arginine, 50 mM glutamine, 10 mM MgCl2, 0.5 mM DTT, RT 30 min; 2% agarose TBE gels; conditions: protein: recombinant; tags: His8 removed with TEV protease; chain copies: 2
# EilR-R32A = biological target: T2, EilR-R32A; assay: EMSA; up to 8:1 protein:DNA; 10 mM MgCl2; Operator EMSA: 30 mM Tris pH 7.7, 100 mM NaCl, 25 mM arginine, 25 mM glutamine, 5 mM MgCl2, RT 1.5 h; mutant EMSA: 50 mM Tris pH 8.0, 150 mM NaCl, 50 mM arginine, 50 mM glutamine, 10 mM MgCl2, 0.5 mM DTT, RT 30 min; 2% agarose TBE gels; conditions: protein: recombinant; chain copies: 2
# EilR-Y03A/R32A = biological target: T3, EilR-Y03A/R32A; assay: as above; conditions: protein: recombinant; chain copies: 2
# EilR-H47A = biological target: T4, EilR-H47A; assay: as above; conditions: protein: recombinant; chain copies: 2
Binder,binding result (EilR [1]),binding result (EilR [2]),binding result (EilR-R32A),binding result (EilR-Y03A/R32A),binding result (EilR-H47A)
eilO2 (dsDNA) DNA 1: CGCAAACTGGACGGATGTCCAGCTTTGT DNA 2: ACAAAGCTGGACATCCGTCCAGTTTGCG,binds,–,–,–,–
eilOc 28-mer duplex (dsDNA) DNA 1: AAAAAGTTGGACACGTGTCCAACTTTCC DNA 2: GGAAAGTTGGACACGTGTCCAACTTTTT,–,binds,no binding,no binding,no binding
